# Experimental data from the Human Domainome abundance scans (Beltran et al. 2025).
# ± gives the uncertainty stated by the source.
# Experiment: abundance fitness (aPCA) (normalised: wild type 0, dead -1); higher = more abundant; growth selection in yeast, the domain comes from the species named
# Details: Bacillus caldolyticus
row,Substance,abundance fitness
1,"Cold shock protein CspB E21R, P41016",0.011 ± 0.036

# Same assay, conditions: Homo sapiens
row,Substance,abundance fitness
1,"Scaffold attachment factor B1 L31K, Q15424",-0.66 ± 0.093
2,"Scaffold attachment factor B1 R46Y, Q15424",-0.463 ± 0.064
3,"Scaffold attachment factor B1 I65H, Q15424",-0.917 ± 0.14
4,"Scaffold attachment factor B1 E59G, Q15424",-0.153 ± 0.076
5,"Scaffold attachment factor B1 I65E, Q15424",-0.497 ± 0.085
6,"Scaffold attachment factor B1 D38L, Q15424",-0.683 ± 0.055
7,"Scaffold attachment factor B1 E74N, Q15424",-0.366 ± 0.09
8,"Scaffold attachment factor B1 K54R, Q15424",-0.063 ± 0.047
9,"Scaffold attachment factor B1 D67Q, Q15424",-0.123 ± 0.077
10,"Scaffold attachment factor B1 K63P, Q15424",-0.61 ± 0.054
11,"Scaffold attachment factor B1 L34V, Q15424",-0.738 ± 0.058
12,"Scaffold attachment factor B1 L39R, Q15424",-0.894 ± 0.05
13,"Scaffold attachment factor B1 M58F, Q15424",-0.204 ± 0.075
14,"Scaffold attachment factor B1 L31G, Q15424",-0.536 ± 0.06
15,"Scaffold attachment factor B1 L57D, Q15424",-0.202 ± 0.061
16,"Scaffold attachment factor B1 E42F, Q15424",-0.587 ± 0.076
17,"Scaffold attachment factor B1 D38S, Q15424",-0.446 ± 0.059
18,"Scaffold attachment factor B1 E59I, Q15424",-0.071 ± 0.067
19,"Scaffold attachment factor B1 R40T, Q15424",-0.319 ± 0.073
20,"Scaffold attachment factor B1 E68K, Q15424",-0.352 ± 0.07
21,"Scaffold attachment factor B1 A41M, Q15424",-0.142 ± 0.061
22,"Scaffold attachment factor B1 L57K, Q15424",-0.598 ± 0.088

row,Substance,abundance fitness
1,"Scaffold attachment factor B1 I75T, Q15424",-0.194 ± 0.064
2,"Scaffold attachment factor B1 I75A, Q15424",-0.304 ± 0.071
3,"Scaffold attachment factor B1 I65K, Q15424",-0.434 ± 0.061
4,"Scaffold attachment factor B1 T78V, Q15424",-0.133 ± 0.07
5,"Scaffold attachment factor B1 S32V, Q15424",-0.174 ± 0.059
6,"Scaffold attachment factor B1 K63I, Q15424",-0.394 ± 0.09
7,"Scaffold attachment factor B1 E42N, Q15424",-0.736 ± 0.11
8,"Scaffold attachment factor B1 I77P, Q15424",-0.381 ± 0.096
9,"Scaffold attachment factor B1 V36L, Q15424",-0.063 ± 0.053
10,"Scaffold attachment factor B1 E42Y, Q15424",-0.619 ± 0.1
11,"Scaffold attachment factor B1 V48G, Q15424",-0.195 ± 0.057
12,"Scaffold attachment factor B1 D38Q, Q15424",-0.107 ± 0.069
13,"Scaffold attachment factor B1 E42I, Q15424",-0.422 ± 0.057
14,"Scaffold attachment factor B1 E66T, Q15424",-0.11 ± 0.076
15,"Scaffold attachment factor B1 G27W, Q15424",-0.559 ± 0.057
16,"Scaffold attachment factor B1 P72S, Q15424",-0.197 ± 0.058
17,"Scaffold attachment factor B1 R60M, Q15424",-0.38 ± 0.065
18,"Scaffold attachment factor B1 K54M, Q15424",-0.443 ± 0.087
19,"Scaffold attachment factor B1 K45R, Q15424",0.218 ± 0.2
20,"Scaffold attachment factor B1 V36M, Q15424",-0.031 ± 0.065
21,"Scaffold attachment factor B1 E59T, Q15424",-0.082 ± 0.053
22,"Scaffold attachment factor B1 R29E, Q15424",-0.143 ± 0.068

row,Substance,abundance fitness
1,"Scaffold attachment factor B1 V56G, Q15424",-0.305 ± 0.063
2,"Scaffold attachment factor B1 S55K, Q15424",-0.229 ± 0.093
3,"Scaffold attachment factor B1 E74R, Q15424",-0.074 ± 0.051
4,"Scaffold attachment factor B1 N53Q, Q15424",-0.288 ± 0.089
5,"Scaffold attachment factor B1 G69L, Q15424",-0.558 ± 0.049
6,"Scaffold attachment factor B1 R35V, Q15424",-0.28 ± 0.054
7,"Scaffold attachment factor B1 G52N, Q15424",-1.45 ± 0.23
8,"Scaffold attachment factor B1 N53I, Q15424",-0.27 ± 0.084
9,"Scaffold attachment factor B1 L39A, Q15424",-0.556 ± 0.062
10,"Scaffold attachment factor B1 T78C, Q15424",-0.267 ± 0.079
11,"Scaffold attachment factor B1 D49Q, Q15424",-0.328 ± 0.072
12,"Scaffold attachment factor B1 A64R, Q15424",-0.236 ± 0.048
13,"Scaffold attachment factor B1 T78P, Q15424",-0.21 ± 0.071
14,"Scaffold attachment factor B1 G27V, Q15424",-0.1 ± 0.048
15,"Scaffold attachment factor B1 S55F, Q15424",-0.223 ± 0.054
16,"Scaffold attachment factor B1 L39M, Q15424",-0.304 ± 0.076
17,"Scaffold attachment factor B1 L39S, Q15424",-0.877 ± 0.056
18,"Scaffold attachment factor B1 A41D, Q15424",-0.204 ± 0.064
19,"Scaffold attachment factor B1 D73H, Q15424",-0.443 ± 0.098
20,"Scaffold attachment factor B1 L43V, Q15424",-0.714 ± 0.06
21,"Scaffold attachment factor B1 T28L, Q15424",-0.261 ± 0.07
22,"Scaffold attachment factor B1 T28F, Q15424",-0.142 ± 0.084

row,Substance,abundance fitness
1,"Scaffold attachment factor B1 L57V, Q15424",-0.417 ± 0.065
2,"Scaffold attachment factor B1 R29T, Q15424",-0.141 ± 0.062
3,"Scaffold attachment factor B1 G69C, Q15424",-0.431 ± 0.093
4,"Gamma-crystallin C L167W, P07315",-0.575 ± 0.23
5,"Scaffold attachment factor B1 G69S, Q15424",-0.397 ± 0.071
6,"Scaffold attachment factor B1 E74T, Q15424",-0.183 ± 0.083
7,"Scaffold attachment factor B1 E59N, Q15424",-0.131 ± 0.065
8,"Scaffold attachment factor B1 T26P, Q15424",-0.565 ± 0.16
9,"Scaffold attachment factor B1 N47W, Q15424",-0.593 ± 0.079
10,"Scaffold attachment factor B1 E59D, Q15424",-0.15 ± 0.074
11,"Scaffold attachment factor B1 R44I, Q15424",-0.13 ± 0.071
12,"Scaffold attachment factor B1 D38T, Q15424",-0.307 ± 0.072
13,"Scaffold attachment factor B1 E59Y, Q15424",-0.343 ± 0.095
14,"Scaffold attachment factor B1 R35Q, Q15424",-0.136 ± 0.077
15,"Scaffold attachment factor B1 K45V, Q15424",-0.929 ± 0.46
16,"Scaffold attachment factor B1 R46V, Q15424",-0.797 ± 0.074
17,"Scaffold attachment factor B1 D49R, Q15424",-0.344 ± 0.052
18,"Scaffold attachment factor B1 M58A, Q15424",-0.224 ± 0.063
19,"Scaffold attachment factor B1 E74C, Q15424",-0.18 ± 0.073
20,"Scaffold attachment factor B1 S51V, Q15424",-0.118 ± 0.061
21,"Scaffold attachment factor B1 I65L, Q15424",-0.143 ± 0.049
22,"Scaffold attachment factor B1 V48Q, Q15424",-0.388 ± 0.096

row,Substance,abundance fitness
1,"Scaffold attachment factor B1 G70H, Q15424",-0.467 ± 0.083
2,"Scaffold attachment factor B1 D38I, Q15424",-0.767 ± 0.11
3,"Scaffold attachment factor B1 R46H, Q15424",-0.423 ± 0.12
4,"Scaffold attachment factor B1 K62R, Q15424",-0.089 ± 0.048
5,"Scaffold attachment factor B1 E68T, Q15424",-0.314 ± 0.054
6,"Scaffold attachment factor B1 D33F, Q15424",-0.715 ± 0.063
7,"Scaffold attachment factor B1 R40G, Q15424",-0.732 ± 0.056
8,"Scaffold attachment factor B1 V36T, Q15424",-0.134 ± 0.082
9,"Scaffold attachment factor B1 L43Q, Q15424",-0.911 ± 0.063
10,"Scaffold attachment factor B1 A41Y, Q15424",-0.176 ± 0.069
11,"Scaffold attachment factor B1 R40V, Q15424",-0.123 ± 0.067
12,"Scaffold attachment factor B1 N53C, Q15424",-0.138 ± 0.083
13,"Scaffold attachment factor B1 S50F, Q15424",-0.259 ± 0.08
14,"Scaffold attachment factor B1 R40Q, Q15424",-0.152 ± 0.06
15,"Scaffold attachment factor B1 T28Q, Q15424",-0.485 ± 0.073
16,"Scaffold attachment factor B1 R46K, Q15424",-0.602 ± 0.11
17,"Scaffold attachment factor B1 L61T, Q15424",-0.393 ± 0.078
18,"Scaffold attachment factor B1 T26M, Q15424",-0.213 ± 0.12
19,"Scaffold attachment factor B1 E66H, Q15424",-0.49 ± 0.075
20,"Scaffold attachment factor B1 R29C, Q15424",-0.107 ± 0.073
21,"Scaffold attachment factor B1 V48S, Q15424",-0.255 ± 0.059
